Measured values published in patent publication US9040017B2, “Liver-receptor imaging injection, dispensing method and pharmaceutical composition thereof” (INSTITUTE OF NUCLEAR ENERGY RESEARCH ATOMIC ENERGY COUNCIL, …, priority 2010, dated 2015).

Assay: Radiochemical purity before and after autoclave sterilization
Type: physicochemical
Settings: DTPA-hexa-lactoside autoclaved in a lyophilized vial, then 111In radiolabel
Description: To test whether ^111In radiolabel of DTPA-hexa-lactoside was affected by autoclave sterilization, DTPA-hexa-lactoside was put into a lyophilized vial to set in an autoclave for sterilizing. After that, ^111In radiolabel proceeded. […] The comparison of radiochemical purity between before and after autoclave sterilization was illustrated in FIG. 2. First, a developing solvent of radio-ITLC of 10 mM sodium citrate buffer (about pH 5) were prepared as follows: 0.13 g citric acid monohydrate and 0.11 g trisodium citrate dehydrate were weighed precisely to dissolve in 100 ml water for injection. Then 10 ml of the solution were added in the developing tank as a developing solvent. The position away from the bottom of a TLC-SG film about 2 cm was marked with a pencil as the origin while the position away from the bottom about 9 cm was marked as the end. A few samples were taken by a micropipette to drop at the origin. Then, the TLC-SG film was put in a developing tank containing a buffer (about pH 5) of 10 mM sodium citrate to develop. The film were taken out to dry in the fume cabinet while the liquid level reached the end. […] The calculating formula is as follows: Radiochemical purity (%)=A/B×100%, wherein A refers to a calculated area peak of ^111In-DTPA-hexa-lactoside (Rf=0.0-0.1), and B refers to calculated area of all peaks.

## DTPA derivatives of AHA-Asp[DCM-Lys(ah-Lac)3]2 [DTPA-hexa-lactoside]
  radiochemical purity of 111In after autoclave sterilization: < 90%
